Measured values published in patent US20180327500A1 (SYMPHOGEN A S, published 2018).

Target: T1, His tagged human MET ECD (Sinobiological) (human, UniProt P08581 25-932)
T1 construct: Bought monovalent antigen; also called human MET antigen; not shown: His tag
Experiment: BLI (Octet QK384); antibody captured on anti-human Fc sensors, monovalent MET ECD in solution, 1:1 Langmuir fit

T1 sequence (P08581 25-932): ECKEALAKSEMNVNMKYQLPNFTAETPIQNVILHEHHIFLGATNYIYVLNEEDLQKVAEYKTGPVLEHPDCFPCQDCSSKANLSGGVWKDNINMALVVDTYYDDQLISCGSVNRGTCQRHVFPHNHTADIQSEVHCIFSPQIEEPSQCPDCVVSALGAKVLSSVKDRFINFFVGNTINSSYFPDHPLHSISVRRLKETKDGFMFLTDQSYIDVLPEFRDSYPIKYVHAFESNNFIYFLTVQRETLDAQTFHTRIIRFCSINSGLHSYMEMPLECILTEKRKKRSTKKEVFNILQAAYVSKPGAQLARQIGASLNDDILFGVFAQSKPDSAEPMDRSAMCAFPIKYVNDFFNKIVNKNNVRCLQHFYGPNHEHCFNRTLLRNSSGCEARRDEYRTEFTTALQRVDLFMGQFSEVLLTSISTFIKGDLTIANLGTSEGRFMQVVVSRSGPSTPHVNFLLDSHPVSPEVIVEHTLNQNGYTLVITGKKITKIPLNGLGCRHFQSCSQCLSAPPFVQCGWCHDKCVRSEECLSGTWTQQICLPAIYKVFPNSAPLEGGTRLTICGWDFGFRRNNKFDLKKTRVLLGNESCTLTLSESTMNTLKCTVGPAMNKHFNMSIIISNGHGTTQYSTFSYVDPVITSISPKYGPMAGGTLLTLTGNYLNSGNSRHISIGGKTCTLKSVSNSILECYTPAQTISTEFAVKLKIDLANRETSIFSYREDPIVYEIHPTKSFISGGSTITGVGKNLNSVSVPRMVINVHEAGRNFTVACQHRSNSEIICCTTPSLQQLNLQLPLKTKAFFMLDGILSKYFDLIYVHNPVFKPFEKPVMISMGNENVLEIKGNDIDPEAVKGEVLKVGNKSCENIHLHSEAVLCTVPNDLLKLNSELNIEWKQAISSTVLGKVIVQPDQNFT

Binder	Kd	koff	kon
chimeric antibody 9338 (antibody, V domains shown) VH: QVQLQQPGAELAKPGASVRMSCKASGYTFTSYWMHWVKQRPGQGLEWIGYINPSSGHIENNQKFKDKATLTADKSSSTAYMQLSSLTFEDSAVYYCARGRFAYWGQGTLVTVSS VL: DIVMTQSPAIMSASPGEKVTLTCSASSSVSSGYLYWYQQKPGSSPKLWIYSTSNLASGVPARFSGSGSGTSYSLTVNSMEAEDAASYFCHQWSSYPFTFGSGTKLELK	0.6 nM	0.00011 s⁻¹	190000 M⁻¹ s⁻¹
chimeric antibody 9006 (antibody, V domains shown) VH: QIHLGQSGPELKKPGETVKISCKASGYTFTNFRMNWVKQAPGKGLKWMGWINTYTGEPTYVDDLKGRFAFSLETSASTAYLQINNLKNEDMATYFCARKGIARAMDYWGQGTSVTVSS VL: NIVMTQSPSSLSVSAGEMVTMSCKSSQSLLDSGNQKNYLAWYQQKPGQPPQLLIFGASTRESGVPDRFTGSGSGTDFTLTVSSVQAEDLAVYYCQNDHSYPYTFGGGTKLEIK	2.2 nM	0.00012 s⁻¹	54000 M⁻¹ s⁻¹
